# Data taken from the supplement of paper PMC12042874.
# ± gives the uncertainty stated by the source.
# Assay: amyloid nucleation score (Sup35N fusion, yeast selection) (log enrichment); library NNK1; higher = more nucleation; inactive = no reads after selection
# In short: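 Psi-negative yeast expressed Sup35N fused to peptides of 20 random codons. They were induced 24 hours with 100 μM copper sulfate, grown 7 days at 30°C without adenine and uracil, and their plasmid inserts from input and output were Illumina-sequenced. The nucleation score is the DiMSum log enrichment of output over input reads, centred on the mode score of non-aggregating sequences. Sequences with under 100 input reads were excluded.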
row,Substance,amyloid nucleation score
1,IYLPRNVFRLTWFYLSQSLA,0.639 ± 1.1
2,PTVYSDYTCSTFMWISD,0.299 ± 0.6
3,FFRDSHYIQRDKSQPSRGSN,-0.269 ± 1.1
4,VPIMYNFGINDVGSVCDCTD,7.259 ± 0.053
5,STNWFNYSNGNTVWDIGDYL,0.4 ± 0.32
6,FCQGYRLGS,0.19 ± 0.48
7,YLYCSVSVYRFERFRRNHSR,0.051 ± 0.3
8,GGGQAELEGR,0.365 ± 0.45
9,VWGDRWTTVSGRSAEYRTKS,1.34 ± 0.15
10,DEGRDLILISLAHRTSRIDP,1.29 ± 0.26
11,VKFMMRLDYYCPLSTVQTTA,-0.644 ± 0.36
12,RDYSFGGLMPGCDGEHIVS,-0.138 ± 0.4
13,LCNVEDRPYKKFPTDVASK,-0.031 ± 0.31
14,KHQSHFLVV,0.872 ± 0.45
15,ILIRNIMCSGSVSLSNLGSG,-0.134 ± 1
16,MLSNGGLHVRSK,1.31 ± 0.93
17,CYSRAYEEARSAI,1.21 ± 0.76
18,QLSFYSFCPMATYRSSNSDL,5.92 ± 0.053
19,LRVPRCMIKRLHYGICPSSG,0.094 ± 0.91
20,QMGELSSYRLFGIRTFRF,-0.02 ± 0.81
21,SRVSNCISLVMYKAKLCSIR,0.644 ± 0.5
22,TAAYRFNESVHVSNSRFMVH,0.334 ± 0.42
23,VIIRRWHIVFCSRFMFPCNF,0.297 ± 0.64
24,TWYLMMENVS,4.69 ± 0.056

row,Substance,amyloid nucleation score
1,PDDNMMVLGVSSADNLLIRL,0.579 ± 0.66
2,TIWFAF,-0.128 ± 0.64
3,LPCKIKKWIHWEFRSEFN,-2.06 ± 2.7
4,GEIEHHLRYVQCYFRRAVRL,0.319 ± 0.33
5,WQLTGISIWARFMFYVWQGK,-1.34 ± 0.92
6,RYWCCSPVRSLVHGRHCEV,1.52 ± 0.24
7,VLISENNITNHNSHECLVCY,-1.02 ± 1.7
8,VFLHVES,1.85 ± 0.59
9,LFCSLGSSPAYVNKWCVHLE,0.862 ± 0.45
10,NHFVALLSGIGVCSFWKKFG,-0.257 ± 1.5
11,KIVRSRWFIICACVKLRTRL,0.427 ± 0.36
12,PECTSVRATGIGDWWEDRGA,-1.46 ± 2.7
13,ARLDRSFR,0.451 ± 0.55
14,VHIFCSTTCFFMNFMLIQNK,-0.045 ± 0.51
15,RYDAWCYGWGVMMLHKFIG,-0.012 ± 0.64
16,GESHPFNVFRYCL,1.42 ± 0.14
17,GTLNMIFRFGMHAIVSYFWG,0.024 ± 0.4
18,ILNFRERL,-1.06 ± 0.43
19,RCLEGLSIMLNDFLPPCGP,-0.224 ± 0.71
20,FFELYRVLCTNAFLWCKGYV,-0.423 ± 0.44
21,FVEVMLIVNFTGLGVV,0.576 ± 0.16
22,VSWDSMYMAMPWVIVHVL,inactive
23,RTCAWVGQHATSLWPFNRGQ,0.493 ± 0.77
24,YLFAWSWEDGFYTGACRLLA,0.006 ± 0.29

row,Substance,amyloid nucleation score
1,RSRPVPIVKDRSISNSRESR,-0.999 ± 2.4
2,NALRVV,-0.637 ± 0.68
3,GWGLA,inactive
4,RNRYTFSIRLVQTDYCFLGM,1.63 ± 0.19
5,VSEHSFWIWGRVPQLTQIIA,inactive
6,QAFFVFC,1.3 ± 0.36
7,LQILLLVSCLSQYAANKRRA,-0.291 ± 0.57
8,GFFLI,-0.007 ± 0.21
9,MLHYSARGFRRHK,0.326 ± 1.2
10,HRPDIHFVVPVTAP,-0.619 ± 0.4
11,NSIYHYIVNTFYLNFMGWIE,1.25 ± 0.79
12,GSRSHRSH,0.751 ± 0.67
13,ADNFLFWHVIEYKENLDHAR,-1.32 ± 1.1
14,VTDFVALFVIGTGPVVGLRW,1.27 ± 0.43
15,QFGWFWFLNYALQDFDN,-0.696 ± 0.75
16,LTMLYMLLCDNSLMRDILPD,0.951 ± 0.88
17,NCMKLLEQRGGCLQANGF,2.09 ± 0.15
18,VKFCCFGLLCELYSGHSGRM,1.33 ± 0.15
19,FRFSHRLFLWPKYFSIFKNS,0.37 ± 0.35
20,TRRFR,-0.181 ± 0.41
21,YFRIDAKTWFVSFPVALLPV,-0.557 ± 0.29
22,ETHVRAPSGGNAGPLRRGSS,-0.877 ± 0.52
